Among the data in publication PMC9769368 are fold stronger binding avidity than AAV5 values, retold here.

For the experiment, the target named is AAVGo.1 virus-like particles (goat adeno-associated virus capsid, without DNA genome) (goat adeno-associated virus AAVGo.1). Briefly: ELISA; direct ELISA in duplicate; AAV VLPs (2.5 ug/mL) coated on plates in 100 mM NaHCO3 pH 9.6, washed with TBST; N-terminally His-tagged AAVR fragment added, detected with anti-6x His HRP antibody; OD 450 nm; EC50 by nonlinear regression (avidity).

With “His6PKD1, fragment of human AAV receptor (AAVR) with PKD domain 1 (domain or fragment)”, the fold stronger binding avidity than AAV5 is 3 fold. Consider “His6PKD12, fragment of human AAV receptor (AAVR) with PKD domains 1 and 2 (domain or fragment)”, for which the fold stronger binding avidity than AAV5 was found to be 2 fold.
